The values that follow are results of earlier work, collected in publication PMC2921030.

This series deals with 4E-BP1 peptide (Homo sapiens) (UniProt Q13541).

Bounds are passed on as bounds.

Chain of UniProt Q13541 (Q13541 2-118): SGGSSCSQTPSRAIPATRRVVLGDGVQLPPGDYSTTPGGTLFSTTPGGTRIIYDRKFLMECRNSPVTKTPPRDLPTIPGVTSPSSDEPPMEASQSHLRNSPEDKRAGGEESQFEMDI

On to eIF4E (from UniProt P06730), for which the Kd was under 50 nM.

Broadly, the Kd is the constant that tells how readily two partners part at equilibrium.
